# Data: US20230277590A1
# Key:
# [1] = molecular target: Mesothelin (MSLN) on target cells (human)
# [2] = molecular target: Mesothelin (MSLN) on target cells (human); remark: listed apart in the source
Substance,Time (hours) to 80% max killing of HeLa cells by transduced primary T cells (hours to 80% max killing (E:T 4:1)) [1],"EC50, Jurkat NFAT luciferase, HEK293 cells transfected with titrated MSLN mRNA (MSLN molecules/cell) [2]"
"M5 MSLN CAR, third generation",28,–
m912 MSLN CAR (Gen3),–,80000
